Results from patent US20200399369A1 (Sanofi, published 2020).

T1: Human CD3 (human)
T1 chain: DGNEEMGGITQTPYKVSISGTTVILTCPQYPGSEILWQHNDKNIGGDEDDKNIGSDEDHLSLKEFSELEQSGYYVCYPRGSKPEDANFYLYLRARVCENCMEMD

B1: CD38hyb6284/CD28sup x CD3mid_ENLQ DKTHT IgG4 FALA (other)
light 1: DIVMTQTPLSLSVTPGQPASISCKSSQSLVHENLQTYLSWYLQKPGQSPQSLIYKVSNRFSGVPDRFSGSGSGTDFTLKISRVEAEDVGVYYCGQGTQYPFTFGSGTKVEIKDKTHTDIQMTQSPSSLSASVGDRVTITCQASQNIYVWLNWYQQKPGKAPKLLIYKASNLHTGVPSRFSGSGSGTDFTLTISSLQPEDIATYYCQQGQTYPYTFGQGTKLEIKDKTHTRTVAAPSVFIFPPSDEQLKSGTASVVCLLNNFYPREAKVQWKVDNALQSGNSQESVTEQDSKDSTYSLSSTLTLSKADYEKHKVYACEVTHQGLSSPVTKSFNRGEC
heavy 1: QVQLVQSGAEVVKPGASVKVSCKASGYTFTSYYIHWVRQAPGQGLEWIGSIYPGNVNTNYAQKFQGRATLTVDTSISTAYMELSRLRSDDTAVYYCTRSHYGLDWNFDVWGKGTTVTVSSDKTHTQVQLVESGGGVVQPGRSLRLSCAASGFTFTKAWMHWVRQAPGKQLEWVAQIKDKSNSYATYYADSVKGRFTISRDDSKNTLYLQMNSLRAEDTAVYYCRGVYYALSPFDYWGQGTLVTVSSDKTHTASTKGPSVFPLAPCSRSTSESTAALGCLVKDYFPEPVTVSWNSGALTSGVHTFPAVLQSSGLYSLSSVVTVPSSSLGTKTYTCNVDHKPSNTKVDKRVESKYGPPCPPCPAPEAAGGPSVFLFPPKPKDTLMISRTPEVTCVVVDVSQEDPEVQFNWYVDGVEVHNAKTKPREEQFNSTYRVVSVLTVLHQDWLNGKEYKCKVSNKGLPSSIEKTISKAKGQPREPQVCTLPPSQEEMTKNQVSLSCAVKGFYPSDIAVEWESNGQPENNYKTTPPVLDSDGSFFLVSKLTVDKSRWQEGNVFSCSVMHEALHNHYTQKSLSLSLG
heavy 2: QVQLLQSGAELVRPGVSVKISCTGSGYSFTNYAVHWVKQSHVKSLEWIGVISPYYGDTTYNQKFTGKATMTVDKSSSTAYMELARLTSEDSAIYFCARRFEGFYYSMDYWGQGTSVTVSSASTKGPSVFPLAPCSRSTSESTAALGCLVKDYFPEPVTVSWNSGALTSGVHTFPAVLQSSGLYSLSSVVTVPSSSLGTKTYTCNVDHKPSNTKVDKRVESKYGPPCPPCPAPEAAGGPSVFLFPPKPKDTLMISRTPEVTCVVVDVSQEDPEVQFNWYVDGVEVHNAKTKPREEQFNSTYRVVSVLTVLHQDWLNGKEYKCKVSNKGLPSSIEKTISKAKGQPREPQVYTLPPCQEEMTKNQVSLWCLVKGFYPSDIAVEWESNGQPENNYKTTPPVLDSDGSFFLYSKLTVDKSRWQEGNVFSCSVMHEALHNHYTQKSLSLSLG
light 2: DVVMIQTPLSLPVSLGDQASISCRPSQSLVHSNGNTYLNWYLQRPGQSPKLLIYKVSKRFSGVPDRFSGSGSGTDFTLKISRVEAEDLGVYLCSQSTHVPLTFGSGTQLEIKRTVAAPSVFIFPPSDEQLKSGTASVVCLLNNFYPREAKVQWKVDNALQSGNSQESVTEQDSKDSTYSLSSTLTLSKADYEKHKVYACEVTHQGLSSPVTKSFNRGEC
notes: Trispecific antibody; also called BP # 7
B2: CD38hyb5739/CD28sup x CD3mid_ENLQ DKTHT IgG4 FALA (other)
light 1: B1 light 1
heavy 1: B1 heavy 1
heavy 2: QVQLQQSGPELVRPGTSVKVSCKASGYAFTTYLVEWIKQRPGQGLEWIGVINPGSGSTNYNEKFKGKATLTVDRSSTTAYMHLSGLTSDDSAVYFCARYAYGYWGQGTTLTVSSASTKGPSVFPLAPCSRSTSESTAALGCLVKDYFPEPVTVSWNSGALTSGVHTFPAVLQSSGLYSLSSVVTVPSSSLGTKTYTCNVDHKPSNTKVDKRVESKYGPPCPPCPAPEAAGGPSVFLFPPKPKDTLMISRTPEVTCVVVDVSQEDPEVQFNWYVDGVEVHNAKTKPREEQFNSTYRVVSVLTVLHQDWLNGKEYKCKVSNKGLPSSIEKTISKAKGQPREPQVYTLPPCQEEMTKNQVSLWCLVKGFYPSDIAVEWESNGQPENNYKTTPPVLDSDGSFFLYSKLTVDKSRWQEGNVFSCSVMHEALHNHYTQKSLSLSLG
light 2: DIVMTQSQKFMSASVGDRVSITCKASQNVGTAVAWYQQQPGHSPKQLIYSASNRYTGVPDRFTGSGAGTDFTLTISNIQSEDLADYFCQQYSTYPFTFGSGTKLEIKRTVAAPSVFIFPPSDEQLKSGTASVVCLLNNFYPREAKVQWKVDNALQSGNSQESVTEQDSKDSTYSLSSTLTLSKADYEKHKVYACEVTHQGLSSPVTKSFNRGEC
notes: Trispecific antibody; also called BP # 6′
B3: CD38hhy992/CD28sup x CD3mid_ENLQ DKTHT IgG4 FALA (other)
light 1: B1 light 1
heavy 1: B1 heavy 1
heavy 2: QVQLVQSGAEVKKPGASVKVSCKVSGYTLTEFSIHWVRQAPGQGLEWMGGFDPEDGETIYAQKFQGRVIMTEDTSTDTAYMEMNSLRSEDTAIYYCTTGRFFDWFWGQGTLVTVSSASTKGPSVFPLAPCSRSTSESTAALGCLVKDYFPEPVTVSWNSGALTSGVHTFPAVLQSSGLYSLSSVVTVPSSSLGTKTYTCNVDHKPSNTKVDKRVESKYGPPCPPCPAPEAAGGPSVFLFPPKPKDTLMISRTPEVTCVVVDVSQEDPEVQFNWYVDGVEVHNAKTKPREEQFNSTYRVVSVLTVLHQDWLNGKEYKCKVSNKGLPSSIEKTISKAKGQPREPQVYTLPPCQEEMTKNQVSLWCLVKGFYPSDIAVEWESNGQPENNYKTTPPVLDSDGSFFLYSKLTVDKSRWQEGNVFSCSVMHEALHNHYTQKSLSLSLG
light 2: EIILTQSPAILSLSPGERATLSCRASQSVISRFLSWYQVKPGLAPRLLIYGASTRATGIPVRFSGSGSGTDFSLTISSLQPEDCAVYYCQQDSNLPITFGQGTRLEIKRTVAAPSVFIFPPSDEQLKSGTASVVCLLNNFYPREAKVQWKVDNALQSGNSQESVTEQDSKDSTYSLSSTLTLSKADYEKHKVYACEVTHQGLSSPVTKSFNRGEC
notes: Trispecific antibody; also called BP # 5′
B4: CD38hhy1195/CD28sup x CD3mid_ENLQ DKTHT IgG4 FALA (other)
light 1: B1 light 1
heavy 1: B1 heavy 1
heavy 2: QVQLVESGGGVVQPGRSLRLSCAASGFTFSSYGMYWVRQAPGKGLEWVAVIWYDGSNKYYADSVKGRFTISRDNSKNTLYLQMNSLRAEDTAVYHCARDPGLRYFDGGMDVWGQGTTVTVSSASTKGPSVFPLAPCSRSTSESTAALGCLVKDYFPEPVTVSWNSGALTSGVHTFPAVLQSSGLYSLSSVVTVPSSSLGTKTYTCNVDHKPSNTKVDKRVESKYGPPCPPCPAPEAAGGPSVFLFPPKPKDTLMISRTPEVTCVVVDVSQEDPEVQFNWYVDGVEVHNAKTKPREEQFNSTYRVVSVLTVLHQDWLNGKEYKCKVSNKGLPSSIEKTISKAKGQPREPQVYTLPPCQEEMTKNQVSLWCLVKGFYPSDIAVEWESNGQPENNYKTTPPVLDSDGSFFLYSKLTVDKSRWQEGNVFSCSVMHEALHNHYTQKSLSLSLG
light 2: DIQLTQSPSFLSASVGDRVTITCRASQGISSYLAWYQQKPGKAPKLLIFAASTLHSGVPSRFSGSGSGTEFTLTISSLQPEDFATYYCQQLNSFPYTFGQGTKLEIKRTVAAPSVFIFPPSDEQLKSGTASVVCLLNNFYPREAKVQWKVDNALQSGNSQESVTEQDSKDSTYSLSSTLTLSKADYEKHKVYACEVTHQGLSSPVTKSFNRGEC
notes: Trispecific antibody; also called BP # 8
B5: CD38hhy1370/CD28sup x CD3mid_ENLQ DKTHT IgG4 FALA (other)
light 1: B1 light 1
heavy 1: B1 heavy 1
heavy 2: QVQLVESGGGVVQPGRSLRLSCAASGFTFSSYGMHWVRQAPGKGLEWVAVIWYDGSNKYYADSVKGRFTISGDNSKNTLYLQMNSLRAEDTAVYYCARMFRGAFDYWGQGTLVTVSSASTKGPSVFPLAPCSRSTSESTAALGCLVKDYFPEPVTVSWNSGALTSGVHTFPAVLQSSGLYSLSSVVTVPSSSLGTKTYTCNVDHKPSNTKVDKRVESKYGPPCPPCPAPEAAGGPSVFLFPPKPKDTLMISRTPEVTCVVVDVSQEDPEVQFNWYVDGVEVHNAKTKPREEQFNSTYRVVSVLTVLHQDWLNGKEYKCKVSNKGLPSSIEKTISKAKGQPREPQVYTLPPCQEEMTKNQVSLWCLVKGFYPSDIAVEWESNGQPENNYKTTPPVLDSDGSFFLYSKLTVDKSRWQEGNVFSCSVMHEALHNHYTQKSLSLSLG
light 2: AIQMTQSPSSLSASVGDRVTITCRASQGIRNDLGWYQQKPGKAPKLLIYAASSLQSGVPSRFSGSGSGTDFTLTISGLQPEDSATYYCLQDYIYYPTFGQGTKVEIKRTVAAPSVFIFPPSDEQLKSGTASVVCLLNNFYPREAKVQWKVDNALQSGNSQESVTEQDSKDSTYSLSSTLTLSKADYEKHKVYACEVTHQGLSSPVTKSFNRGEC
notes: Trispecific antibody; also called BP # 9

Target: T1, Human CD3
Experiment: ELISA, antigen-coated plate
Protocol: (§1) Binding affinities to each target antigen by the CD38/CD28×CD3 T cell engagers were measured by ELISA. Briefly, each antigen was used to coat the 96-well Immuno Plate (Thermo Fisher Scientific) overnight at 4° C. using 200 ng/well in PBS (pH7.4) of each antigen. The coated plate was blocked using 5% skim milk+2% BSA in PBS for one hour at RT, followed by washing with PBS+0.25% Tween 20 three times (Aqua Max 400, Molecular Devices). Serial dilution of antibodies (trispecific and control Abs) were prepared and added onto the ELISA plates (100 μl/well in duplicate), incubated at room temperature (RT) for one hour, followed by washing 5 times with PBS+0.25% Tween 20. […] The reaction was terminated by adding 50 μl 1M H₂SO₄, and OD450 was measured using SpectraMax M5 (Molecular Devices) and analyzed using SoftMax Pro6.3 software (Molecular Devices). The final data was transferred to GraphPad Prism software (GraphPad Software, CA, USA), and plotted. EC50 was calculated using the same software.
(§2) The binding affinities of selected CD38/CD28sup×CD3mid_ENLQ DKTHT IgG4 FALA trispecific antibodies with alternative anti-CD38 binding domains for human CD3, human CD28, human CD38 and cynomolgus monkey CD38 were then determined by ELISA as described above.

EC50 [pM]	Binder
8220	B1
10800	B2
33600	B3
7630	B4
25000	B5

Target: T2, cynomolgus monkey CD38 (cynomolgus monkey, UniProt Q5VAN0 44-301, limits assumed)
T2 construct: also called Cyno CD38; cynoCD38
Experiment: ELISA, antigen-coated plate
Protocol: as §1, §2

EC50 [pM]	Binder
290	B1
1630	B2
912	B3
37700	B4
553	B5

Target: T3, Human CD28 (human, UniProt P10747 19-152, limits assumed)
T3 construct: also called hCD28
Experiment: ELISA, antigen-coated plate
Protocol: as §1, §2

EC50 [pM]	Binder
711	B1
825	B2
809	B3
697	B4
1260	B5

Target: T4, human CD38 (human, UniProt P28907 43-300, limits assumed)
T4 construct: also called hCD38; huCD38
Experiment: ELISA, antigen-coated plate
Protocol: as §1, §2

EC50 [pM]	Binder
253	B1
984	B2
229	B3
103000	B4
587	B5

Target: T5, human CD38 on tumor cell lines NCI-H929 (CD38+/CD28+) and OCI-LY19 (CD38+/CD28-) (human, UniProt P28907 1-300)
Experiment: cell-based or functional assay

Binder	EC50 of in vitro killing of NCI-H929 (CD38+/CD28+) cells, With Dara [pM]	EC50 of in vitro killing of NCI-H929 (CD38+/CD28+) cells, With human IgG1 [pM]
B1	33.6	4.37
B2	9.12	2.74
B3	126	13.4
B4	89.3	17
B5	255	9.6

Target: T6, Human CD38-His (human, UniProt P28907 43-300, limits assumed)
T6 construct: Bought antigen; also called human CD38 (SPR antigen); not shown: His tag
Experiment: SPR (BIACORE 3000), capture format, 1:1 Langmuir model

Kd [pM]	koff [s⁻¹]	kon [M⁻¹ s⁻¹]	Binder
652	0.000512	785000	B1
5570	0.00546	980000	B2
129	0.000175	1.35e+06	B3
14200	0.018	1.27e+06	B4
876	0.000329	376000	B5

Target: T5, human CD38 on tumor cell lines NCI-H929 …
Experiment: cell-based or functional assay
Remark: another data set of the same source

Binder	EC50 of in vitro killing of OCI-LY19 (CD38+/CD28-) cells, With Dara [pM]	EC50 of in vitro killing of OCI-LY19 (CD38+/CD28-) cells, With human IgG1 [pM]
B1	81	42.1
B2	219	61
B3	133	57.3
B4	715	296
B5	210	58.5
